Measurements: patent WO2023219147A1

Biological target: human CCR8 (human)
Assay: flow cytometry on CD4-gated tumor-infiltrating cells of ovarian cancer; APC-labeled L263G8 2 ug/mL

“anti-human CCR8 antibody L263G8 (BioLegend)” gave a positive rate of the FoxP3-positive CCR8-positive fraction of 46.6%.
